Results published in paper PMC11426443, “Signal-sensing triggers the shutdown of HemKR, regulating heme and iron metabolism in the spirochete Leptospira biflexa” (PLOS ONE, 2024).
Values belong to the molecule of their own block, whether it stands above or below them.

What was measured:
HemKΔ80 = target: T1, HemKΔ80 (Leptospira biflexa, UniProt A5JUR4); experiment: autophosphorylation, PhosTag-SDS-PAGE; assay type: biochemical; conditions: 5 mM ATP, 10 mM MgCl2; phosphoryl transfer to HemK H98
T1 construct: gene LEPBI_I1423; soluble cytoplasmic catalytic region lacking first 80 residues (periplasmic and transmembrane); N-terminal His-tag cut by TEV; E. coli Rosetta-gami(DE3)
T1 sequence (A5JUR4 81-295): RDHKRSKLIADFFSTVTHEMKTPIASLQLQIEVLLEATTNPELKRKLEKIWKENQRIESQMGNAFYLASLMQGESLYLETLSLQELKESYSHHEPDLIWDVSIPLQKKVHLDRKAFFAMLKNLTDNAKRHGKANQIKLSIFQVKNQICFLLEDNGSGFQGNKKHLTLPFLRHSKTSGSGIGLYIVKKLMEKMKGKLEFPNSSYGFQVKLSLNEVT

[1] = target: phosphorylated HemRFL (full-length HemR, phosphorylated) (Leptospira biflexa); experiment: SEC; 600 uM HemRREC or HemRFL incubated with 5 mM acetyl phosphate, 10 mM MgCl2; dimeric phosphorylated form separated from monomeric non-phosphorylated form on Superdex 10/300 75 prep
[2] = target: phosphorylated HemRREC (receiver domain of HemR, phosphorylated) (Leptospira biflexa); experiment: as above

Molecule: Nc1ncnc2c1ncn2[C@@H]1O[C@H](COP(=O)(O)OP(=O)(O)OP(=O)(O)O)[C@@H](O)[C@H]1O [ATP]
- autophosphorylation, PhosTag-SDS-PAGE (HemKΔ80): possesses ATP-dependent autokinase activity (Fig 1A)

- stoichiometry N [1]: 2
Molecule: phosphorylated HemRFL (full-length HemR, phosphorylated) (natural protein)

- stoichiometry N [2]: 2
Molecule: phosphorylated HemRREC (receiver domain of HemR, phosphorylated) (domain or fragment)
